Experimental data as given in patent US9540620B2, “Methods and compositions for modulating G-alpha-Q signaling” (The University of North Carolina at Chapel Hill, priority 2012, dated 2017).

T1: activated Gαq (Homo sapiens, UniProt P50148)
T1 sequence (P50148 1-359): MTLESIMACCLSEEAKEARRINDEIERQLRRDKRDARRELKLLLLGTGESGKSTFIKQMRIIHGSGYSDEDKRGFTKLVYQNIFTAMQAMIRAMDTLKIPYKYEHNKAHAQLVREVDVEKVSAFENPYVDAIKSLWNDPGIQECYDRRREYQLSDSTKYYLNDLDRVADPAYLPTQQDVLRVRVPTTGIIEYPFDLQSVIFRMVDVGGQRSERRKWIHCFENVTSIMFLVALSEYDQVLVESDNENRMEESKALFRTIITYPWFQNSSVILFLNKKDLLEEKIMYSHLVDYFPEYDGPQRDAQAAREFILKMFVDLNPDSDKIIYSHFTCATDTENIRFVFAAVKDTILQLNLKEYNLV

T2: Gαq (Homo sapiens, UniProt P50148)
T2 sequence (P50148 1-359): T1 sequence (P50148 1-359)

B1: PLC-β3: full-length phospholipase C beta 3, effector of Gαq, used as unlabeled competitor (protein)
chain: AGAQPGVHALQLEPPTVVETLRRGSKFIKWDEETSSRNLVTLRVDPNGFFLYWTGPNMEVDTLDISSIRDTRTGRYARLPKDPKIREVLGFGGPDARLEEKLMTVVSGPDPVNTVFLNFMAVQDDTAKVWSEELFKLAMNILAQNASRNTFLRKAYTKLKLQVNQDGRIPVKNILKMFSADKKRVETALESCGLKFNRSESIRPDEFSLEIFERFLNKLCLRPDIDKILLEIGAKGKPYLTLEQLMDFINQKQRDPRLNEVLYPPLRPSQARLLIEKYEPNQQFLERDQMSMEGFSRYLGGEENGILPLEALDLSTDMTQPLSAYFINSSHNTYLTAGQLAGTSSVEMYRQALLWGCRCVELDVWKGRPPEEEPFITHGFTMTTEVPLRDVLEAIAETAFKTSPYPVILSFENHVDSAKQQAKMAEYCRSIFGDALLIEPLDKYPLAPGVPLPSPQDLMGRILVKNKKRHRPSAGGPDSAGRKRPLEQSNSALSESSAATEPSSPQLGSPSSDSCPGLSNGEEVGLEKPSLEPQKSLGDEGLNRGPYVLGPADREDEEEDEEEEEQTDPKKPTTDEGTASSEVNATEEMSTLVNYIEPVKFKSFEAARKRNKCFEMSSFVETKAMEQLTKSPMEFVEYNKQQLSRIYPKGTRVDSSNYMPQLFWNVGCQLVALNFQTLDVAMQLNAGVFEYNGRSGYLLKPEFMRRPDKSFDPFTEVIVDGIVANALRVKVISGQFLSDRKVGIYVEVDMFGLPVDTRRKYRTRTSQGNSFNPVWDEEPFDFPKVVLPTLASLRIAAFEEGGKFVGHRILPVSAIRSGYHYVCLRNEANQPLCLPALLIYTEASDYIPDDHQDYAEALINPIKHVSLMDQRARQLAALIGESEAQAGQETCQDTQSQQLGSQPSSNPTPSPLDASPRRPPGPTTSPASTSLSSPGQRDDLIASILSEVAPTPLDELRGHKALVKLRSRQERDLRELRKKHQRKAVTLTRRLLDGLAQAQAEGRCRLRPGALGGAADVEDTKEGEDEAKRYQEFQNRQVQSLLELREAQVDAEAQRRLEHLRQALQRLREVVLDANTTQFKRLKEMNEREKKELQKILDRKRHNSISEAKMRDKHKKEAELTEINRRHITESVNSIRRLEEAQKQRHDRLVAGQQQVLQQLAEEEPKLLAQLAQECQEQRARLPQEIRRSLLGEMPEGLGDGPLVACASNGHAPGSSGHLSGADSESQEENTQL

Assays:
[1] = test system: Gαq downstream of the muscarinic receptor; assay: Muscarinic receptor-dependent activation of PLC-β, [3H]inositol phosphate accumulation in HEK293 cells; assay type: cell-based; settings: peptide for 30 minutes (FIG. 9)
Procedure: FIG. 9. Muscarinic receptor-dependent activation of PLC-β was determined by quantification of [^3H]inositol phosphate accumulation. Where indicated, HEK293 cells were treated with Palm-27-mer peptide for 30 minutes.
Since a major tenet of this invention is to interdict Gαq signaling in cells with peptidomimetics, it will be necessary to efficiently introduce peptides derived from this scaffold into cells. […] Moreover, once introduced, this peptide prevented the stimulation of PLC activity by Gαq downstream of the P2Y6 receptor and/or muscarinic receptor, a G protein-coupled receptor selective for Gαq (FIG. 7C and FIG. 9).
Since a major tenet of this work is to downregulate G-alpha-q signaling in cells with peptidomimetics, peptides derived from this scaffold have been efficiently delivered into cells.

activated Gαq = target: T1, activated Gαq; settings: full-length protein; read-out: dissociation constant (KD) for activated Gαq; cited from earlier work
Gαq = target: T2, Gαq; assay: Fluorescence polarization competition: unlabeled PLC-β3 against TAMRA-labeled peptide for Gαq; assay type: binding; settings: TAMRA-27-mer 400 nM, Gαq 800 nM
Procedure: FIGS. 3A and 3B. TAMRA-27-mer and PLC-β3 directly compete for Gαq. (FIG. 3A) Increasing concentrations of PLC-β3 were added to a solution of TAMRA-27-mer (400 nM) and Gαq (800 nM). The IC50 value is derived from three independent experiments. (FIG. 3B) Phospholipase activity of PLC-β3 activated by Gαq using lipid vesicles and inhibited by increasing concentrations of TAMRA-27-mer.
FIGS. 6A-C. Quantification of Gαq binding to peptides corresponding to the HTH of PLβ3. […] The structures of PLCβ3 (3 OHM) and p63RhoGEF (2RGN) bound to Gαq were superimposed and a single Gαq is shown. Immediately below is shown the sequence alignment of PLCβ3 (SEQ ID NO:37) and p63RhoGEF (SEQ ID NO:41) encompassing the helix-turn-helix. Underlined residues are labeled in the structure. […] (FIG. 6C) Increasing concentrations of unlabeled PLC-β3 were added to a solution of labeled 25-mer (400 nM) and Gαq (4 μM). KD and IC50 values were derived from three independent experiments.
Fluorescence polarization will be used to monitor disruption of complex formation between the 27-mer and active Gαq to identify compounds that directly compete with the complex. It is expected that the majority of these compounds will sit within the canonical effector-binding site of Gαq to prevent the binding of peptide—and by extension, prevent the binding of effectors. However, before using this assay format to identify inhibitors of complex formation it was necessary to insure that peptides corresponding to the HTH of PLC-β3 bound to Gαq. […] These experiments strongly support that peptides corresponding to the HTH of PLC-β3 directly bind to the effector pocket of Gαq and can be used as surrogates of effectors in assays of complex formation with active Gαq.
The most promising peptide consisted of 25 residues (TAMRA-25-mer) spanning the entire HTH and bound to G-alpha-q with appreciable affinity (Kd˜6 microMolar).

Molecule	stimulation of PLC activity by Gαq downstream of the muscarinic receptor [1]	Kd (activated Gαq) [nM]	competition with the 27-mer for binding to Gαq (Gαq)
Palm-PEG-PEG-HQDYAEALANPIKHVSL-Nle-DQRARQLAA (HQDYAEALANPIKHVSLXDQRARQLAA; non-natural residues) [Palm-27-mer, 27-mer HTH peptide with a palmityl lipid linked through PEG linkers]	prevent the stimulation of PLC activity	–	–
B1	–	10 to 100	could effectively compete
